Results: US9249224B2 (RINAT NEUROSCIENCE CORP., priority 2011, dated 2016)

Target: T1, human GHR (Homo sapiens, UniProt P10912, I544L)
T1 construct: expressed in transfected cells; host or cells: HEK293
T1 sequence (P10912 19-638 I544L): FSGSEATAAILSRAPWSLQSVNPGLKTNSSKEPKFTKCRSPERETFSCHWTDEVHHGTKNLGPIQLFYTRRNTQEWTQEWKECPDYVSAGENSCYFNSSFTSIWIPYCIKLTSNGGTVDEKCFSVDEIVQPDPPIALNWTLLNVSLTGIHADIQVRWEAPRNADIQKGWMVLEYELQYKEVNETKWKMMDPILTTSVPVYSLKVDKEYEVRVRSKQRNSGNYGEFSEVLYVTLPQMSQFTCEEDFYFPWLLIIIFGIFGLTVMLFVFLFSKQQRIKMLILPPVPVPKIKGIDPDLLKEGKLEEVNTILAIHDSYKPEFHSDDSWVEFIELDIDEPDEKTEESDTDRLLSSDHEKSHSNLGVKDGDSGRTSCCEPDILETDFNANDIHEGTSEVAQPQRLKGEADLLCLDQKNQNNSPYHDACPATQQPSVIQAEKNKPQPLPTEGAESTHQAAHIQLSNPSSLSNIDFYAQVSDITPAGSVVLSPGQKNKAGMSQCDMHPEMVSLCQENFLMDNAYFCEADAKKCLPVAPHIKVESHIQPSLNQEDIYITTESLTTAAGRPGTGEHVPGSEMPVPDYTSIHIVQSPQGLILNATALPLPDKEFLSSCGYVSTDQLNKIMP
Assay: STAT5 phosphorylation in vitro assay, human GHR-transfected HEK293 cells
Assay type: cell-based
Conditions: for fluorescent signal ave (phospho-STAT5): Table 7, human GHR-transfected cells
Procedure: This Example illustrates the effect of GHR antibodies in an in vitro STAT5 phosphorylation assay. In this Example, the ability of GHR antibodies to block GHR downstream signaling was tested in vitro using human GHR overexpressing cells and cyno GHR overexpressing cells. […]
Antibodies SS3 and SS1 (hIgG2Δa) were tested using a STAT5 phosphorylation assay. For the STAT5 assay, full-length human GHR overexpressing HEK293 cells or full-length cyno GHR-overexpressing HEK293 cells were cultured, counted by automated cell counter, and seeded in warm freestyle media in 12-well plates (5×10^5 cells/well in 1 ml media). Cells were allowed to settle for 3 hours at 37° C. then treated with 2.5, 5, 50, or 500 nM of SS1 or SS3 in media.
Millipore™ lysis buffer with 1× protease inhibitor cocktail and sodium orthovanadate was added to each pellet at a volume of 100 ul/pellet Cells were vortexed and incubated for 15 minutes at room temp with occasional vortexing, Millipore™ Assay buffer 2 with 1× protease inhibitor cocktail and 1 mM sodium orthovanadate was then added to the lysates at 200 ul/well.
25 ul/well of sample lysate was added to the wells and the beads and samples were incubated overnight at 4′C with shaking in the dark. […]
The plate was read using a Luminex 200 instrument and florescent signal emitted from the samples was measured.

B1: SS1: humanized GHR antagonist antibody; VL SEQ ID NO: 7, VH SEQ ID NO: 8; hIgG2Δa heavy chain SEQ ID NO: 134, light chain SEQ ID NO: 135 (antibody)
heavy: EVQLVESGGGLVKPGGSLRLSCAASGFTFSDAWMDWVRQAPGKGLEWVAEIRSKANYHATYYAESVKGRFTISRDDSKNTLYLQMNSLKTEDTAVYYCTLIRDYWGQGTLVTVSSASTKGPSVFPLAPCSRSTSESTAALGCLVKDYFPEPVTVSWNSGALTSGVHTFPAVLQSSGLYSLSSVVTVPSSNFGTQTYTCNVDHKPSNTKVDKTVERKCCVECPPCPAPPVAGPSVFLFPPKPKDTLMISRTPEVTCVVVDVSHEDPEVQFNWYVDGVEVHNAKTKPREEQFNSTFRVVSVLTVVHQDWLNGKEYKCKVSNKGLPSSIEKTISKTKGQPREPQVYTLPPSREEMTKNQVSLTCLVKGFYPSDIAVEWESNGQPENNYKTTPPMLDSDGSFFLYSKLTVDKSRWQQGNVFSCSVMHEALHNHYTQKSLSLSPGK
light: EIVLTQSPGTLSLSPGERATLSCTATSSVSSSYLNWYQQKPGQAPRLLIYSTSNLASGIPDRFSGSGSGTDFTLTISRLEPEDFAVYYCHQYHRSTPTFGGGTKVEIKRTVAAPSVFIFPPSDEQLKSGTASVVCLLNNFYPREAKVQWKVDNALQSGNSQESVTEQDSKDSTYSLSSTLTLSKADYEKHKVYACEVTHQGLSSPVTKSFNRGEC
modifications: Humanized and/or affinity matured antibody sequence
fluorescent signal ave (phospho-STAT5) (2.5 nM antibody + 4.5 nM GH): 60 | fluorescent signal ave (phospho-STAT5) (5 nM antibody + 4.5 nM GH): 22 | fluorescent signal ave (phospho-STAT5) (50 nM antibody + 4.5 nM GH): 0 | fluorescent signal ave (phospho-STAT5) (500 nM antibody + 4.5 nM GH): 5 | effect on GH-stimulated STAT5 signaling (cells expressing human GHR, 4.5 nM GH): blocked STAT5 signaling in a dose-dependent manner
